Measurements taken from PMC4878873.
Values belong to the substance of their own block, whether it stands above or below them.

What was measured:
[1] = biological target: Cul1^d-N8/Rbx1^∆RING (human) (UniProt Q13616)
[2] = biological target: Cul1^d-N8/Rbx1^∆RING (human) (UniProt Q13616); remark: listed apart in the source
[3] = biological target: COP9-Signalosome (CSN), wild type (human) (UniProt Q13098)
CUL2 = assay: anti-Flag immunoprecipitation, SILAC mass spectrometry; conditions: HEK293T; mutant in light medium, wild type in heavy medium; read off a plot
Elongin B = assay: as above; conditions: HEK293T; mutant in light medium, wild type in heavy medium; read off a plot
CUL3 = assay: as above; conditions: HEK293T; mutant in light medium, wild type in heavy medium; read off a plot
CUL1 = assay: as above; conditions: HEK293T; mutant in light medium, wild type in heavy medium; read off a plot
RBX1 = assay: as above; conditions: HEK293T; mutant in light medium, wild type in heavy medium; read off a plot
Elongin C = assay: as above; conditions: HEK293T; mutant in light medium, wild type in heavy medium; read off a plot
CUL4B = assay: as above; conditions: HEK293T; mutant in light medium, wild type in heavy medium; read off a plot
CUL4A = assay: as above; conditions: HEK293T; mutant in light medium, wild type in heavy medium; read off a plot
SKP1 = assay: as above; conditions: HEK293T; mutant in light medium, wild type in heavy medium; read off a plot
DDB1 = assay: as above; conditions: HEK293T; mutant in light medium, wild type in heavy medium; read off a plot

Sequence of unlabeled Cul1/Rbx1 (Q13616 whole entry): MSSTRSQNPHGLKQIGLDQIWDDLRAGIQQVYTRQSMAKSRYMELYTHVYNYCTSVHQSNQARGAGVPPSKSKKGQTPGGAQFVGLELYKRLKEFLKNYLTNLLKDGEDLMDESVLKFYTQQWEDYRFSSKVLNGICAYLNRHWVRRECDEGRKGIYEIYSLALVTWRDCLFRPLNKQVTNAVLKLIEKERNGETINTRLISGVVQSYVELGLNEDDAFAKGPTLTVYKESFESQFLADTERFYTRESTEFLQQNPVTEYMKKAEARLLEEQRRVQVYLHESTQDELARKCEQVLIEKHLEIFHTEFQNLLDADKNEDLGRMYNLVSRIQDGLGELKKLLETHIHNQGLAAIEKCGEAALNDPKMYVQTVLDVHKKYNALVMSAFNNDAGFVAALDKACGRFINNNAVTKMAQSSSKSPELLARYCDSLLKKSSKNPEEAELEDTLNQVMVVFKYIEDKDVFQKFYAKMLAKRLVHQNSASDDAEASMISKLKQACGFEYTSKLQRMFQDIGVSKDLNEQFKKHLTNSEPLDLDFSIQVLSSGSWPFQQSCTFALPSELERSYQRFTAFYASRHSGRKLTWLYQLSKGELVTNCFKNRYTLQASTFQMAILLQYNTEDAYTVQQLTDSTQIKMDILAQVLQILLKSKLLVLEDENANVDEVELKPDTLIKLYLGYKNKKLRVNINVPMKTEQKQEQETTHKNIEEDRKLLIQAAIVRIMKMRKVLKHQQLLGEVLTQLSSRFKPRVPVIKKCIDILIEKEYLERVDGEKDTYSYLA
Sequence of unlabeled Cul1/Rbx1 (P62877 whole entry): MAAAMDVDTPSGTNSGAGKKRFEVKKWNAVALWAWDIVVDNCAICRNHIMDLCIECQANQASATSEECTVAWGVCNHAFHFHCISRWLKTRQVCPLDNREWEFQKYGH

Kd [1]: 13 nM
Substance: CSN^5E76A (from UniProt Q13098 1-491; P61201 1-443; Q9UNS2 1-423; Q9BT78 1-406; Q92905 1-334; Q7L5N1 1-327; Q9H9Q2 1-264; Q99627 1-209) (complex)

KM of deneddylation of Cul1-N8/Rbx1^∆RING (with the sortase sequence, not dansylated) by CSN [2]: 5 nM
Substance: COP9-Signalosome (CSN), wild type (from UniProt Q13098 1-491; P61201 1-443; Q9UNS2 1-423; Q9BT78 1-406; Q92905 1-334; Q7L5N1 1-327; Q9H9Q2 1-264; Q99627 1-209) (complex)

IC50 [3]: 390 nM
Substance: unlabeled Cul1/Rbx1 (from UniProt Q13616 1-776; P62877 1-108) (complex)

ratio to parent (CUL2): 0.83
ratio to parent (Elongin B): 0.85
ratio to parent (CUL3): 0.75
ratio to parent (CUL1): 0.9
ratio to parent (RBX1): 0.92
ratio to parent (Elongin C): 0.8
ratio to parent (CUL4B): 0.63
ratio to parent (CUL4A): 0.57
ratio to parent (SKP1): 0.88
ratio to parent (DDB1): 0.78
Substance: Flag-tagged wild type Csn5 (from UniProt Q92905) T103I
